Consider seven molecules from PMC10202830, “Cingulin and paracingulin tether myosins-2 to junctions to mechanoregulate the plasma membrane” (The Journal of Cell Biology, 2023).

Like-named read-outs stand apart in the source and are kept apart here.

For orientation: Kd means the free concentration of one partner at which half of the binding sites on the other are occupied at equilibrium, for simple one-to-one binding. A high value points to lower affinity.

Assay [1] has as its target T1, His-tagged mZU5 (1520–1745) (mouse, UniProt P39447 1520-1745).
T1 construct: mouse ZO-1, residues 1520-1745 (ZU5-containing region); Labelled with the red tris-NTA dye through its His tag in the MST; also called ZU5-containing region of mZO-1 (residues 1520–1745); ZU5-containing fragment
T1 sequence (looked up): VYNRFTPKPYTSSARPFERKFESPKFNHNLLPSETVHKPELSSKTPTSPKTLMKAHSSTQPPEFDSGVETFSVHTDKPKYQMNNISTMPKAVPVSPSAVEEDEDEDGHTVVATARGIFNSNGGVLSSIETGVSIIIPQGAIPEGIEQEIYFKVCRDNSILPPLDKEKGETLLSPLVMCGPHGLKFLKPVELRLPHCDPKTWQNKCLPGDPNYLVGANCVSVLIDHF
Kind of assay: MST; labelled target His-tagged mZU5 (1520–1745; red tris-NTA dye, 50 nM); GST-mCGN (1–112) or GST-mCGNL1 (1–122) 0–1,000 nM in PBS-T; Monolith NT.115 fit; n = 5.

In assay [2] the target is His-tagged hCGN Rod2 (667–1203), purified (human) (UniProt Q9P2M7). In words: MST; labelled target His-tagged hCGN Rod2 (red tris-NTA dye, 200 nM); ligands hNM2A rod or hNM2B rod 0–10,000 nM; PBS with 0.05% Tween 20; Monolith NT.115 fit; n = 7.
The target of assay [3] is T2, full-length hCGNL1 (10xHis-2xStrep), purified (human, UniProt Q0VF96 1-1302).
T2 construct: human paracingulin (CGNL1), 1–1,302aa, in pACEBac1; the plasmid list prints this construct as 'hCGN-FL-10xHis-2xStrep (1–1,302aa; S2518)'; also called His-tagged full-length CGNL1; purified CGNL1; source: baculovirus-infected insect cells, purified (StrepTag resin)
T2 sequence (looked up): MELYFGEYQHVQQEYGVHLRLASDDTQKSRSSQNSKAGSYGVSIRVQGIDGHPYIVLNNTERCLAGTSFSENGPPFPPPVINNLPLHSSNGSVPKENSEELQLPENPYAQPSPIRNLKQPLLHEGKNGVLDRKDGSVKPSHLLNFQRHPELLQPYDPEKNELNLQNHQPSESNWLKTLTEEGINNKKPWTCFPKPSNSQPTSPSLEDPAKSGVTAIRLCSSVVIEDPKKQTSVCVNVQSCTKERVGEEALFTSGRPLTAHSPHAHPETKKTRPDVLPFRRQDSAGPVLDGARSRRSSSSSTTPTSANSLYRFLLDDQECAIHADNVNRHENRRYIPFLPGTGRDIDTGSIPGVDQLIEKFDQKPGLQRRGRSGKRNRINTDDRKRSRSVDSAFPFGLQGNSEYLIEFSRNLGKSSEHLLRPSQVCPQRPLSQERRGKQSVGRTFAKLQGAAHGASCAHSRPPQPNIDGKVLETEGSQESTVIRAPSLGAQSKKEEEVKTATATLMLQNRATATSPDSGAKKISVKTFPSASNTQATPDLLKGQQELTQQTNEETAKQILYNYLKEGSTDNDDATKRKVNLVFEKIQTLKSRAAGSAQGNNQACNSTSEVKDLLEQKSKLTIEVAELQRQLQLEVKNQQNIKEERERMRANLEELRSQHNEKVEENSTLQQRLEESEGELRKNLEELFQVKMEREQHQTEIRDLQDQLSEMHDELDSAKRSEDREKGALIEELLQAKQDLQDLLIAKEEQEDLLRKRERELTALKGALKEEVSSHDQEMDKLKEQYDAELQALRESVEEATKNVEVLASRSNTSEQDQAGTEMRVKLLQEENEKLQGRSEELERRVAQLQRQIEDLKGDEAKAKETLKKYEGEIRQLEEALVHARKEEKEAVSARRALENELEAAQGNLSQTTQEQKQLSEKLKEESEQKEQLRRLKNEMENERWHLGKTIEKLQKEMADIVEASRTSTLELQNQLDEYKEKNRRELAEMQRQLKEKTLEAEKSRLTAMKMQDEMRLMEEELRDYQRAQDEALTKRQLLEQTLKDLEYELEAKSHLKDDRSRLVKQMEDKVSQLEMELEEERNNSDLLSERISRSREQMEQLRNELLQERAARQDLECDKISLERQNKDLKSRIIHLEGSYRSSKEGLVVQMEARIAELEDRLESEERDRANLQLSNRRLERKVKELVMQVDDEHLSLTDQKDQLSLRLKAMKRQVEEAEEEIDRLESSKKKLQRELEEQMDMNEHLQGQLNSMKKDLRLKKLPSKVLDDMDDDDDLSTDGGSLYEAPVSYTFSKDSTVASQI
In words: pull-down; affinity purified GST-tagged cNM2A, cNM2B, cNM2C rod fragments as baits; His-tagged full-length CGN and CGNL1 purified from baculovirus-infected insect cells as preys; IB with anti-His (Fig. 1 H–J). The following applies: both partners purified.

Another assay has as its target T3, CGN (Mus musculus (Mouse), UniProt P59242).
T3 chain: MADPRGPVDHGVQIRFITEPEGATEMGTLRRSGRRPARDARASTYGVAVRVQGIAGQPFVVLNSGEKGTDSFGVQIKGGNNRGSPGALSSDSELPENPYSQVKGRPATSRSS
In words: MST, GST-fusion ligands (GST dimer).

Another assay deals with T4, CGNL1 (Mus musculus (Mouse), UniProt Q6AW69).
T4 chain: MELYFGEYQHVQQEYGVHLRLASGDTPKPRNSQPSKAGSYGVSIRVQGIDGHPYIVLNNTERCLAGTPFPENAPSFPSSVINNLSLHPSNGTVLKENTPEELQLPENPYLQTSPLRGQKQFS
Kind of assay: MST, GST-fusion ligands (GST dimer).

His-tagged hCGN Rod2 (667–1203), purified (human), sequence (Q9P2M7 667-1203): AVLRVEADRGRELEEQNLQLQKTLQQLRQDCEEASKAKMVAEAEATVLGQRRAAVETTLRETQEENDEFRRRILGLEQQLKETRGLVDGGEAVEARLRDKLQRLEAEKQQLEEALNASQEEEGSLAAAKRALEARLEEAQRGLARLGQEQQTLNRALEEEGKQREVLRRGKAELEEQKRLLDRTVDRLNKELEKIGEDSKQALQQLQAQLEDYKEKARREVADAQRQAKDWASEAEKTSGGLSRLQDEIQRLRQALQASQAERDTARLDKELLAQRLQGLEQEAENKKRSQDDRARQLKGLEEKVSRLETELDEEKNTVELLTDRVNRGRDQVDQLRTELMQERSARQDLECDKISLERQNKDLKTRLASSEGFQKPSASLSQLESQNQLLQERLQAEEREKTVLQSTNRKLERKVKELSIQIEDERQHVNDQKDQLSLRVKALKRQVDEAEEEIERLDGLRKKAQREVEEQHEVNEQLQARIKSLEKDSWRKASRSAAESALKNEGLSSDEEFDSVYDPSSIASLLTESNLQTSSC

The molecule “GST-mCGN (1–112) (from UniProt P59242 1-112) (domain or fragment)” registered a Kd in assay [1] of 7.7 nM.

Take “hNM2A rod (1330–1960), purified (from UniProt P35579 1330-1960) (domain or fragment)”: in assay [2], the dissociation constant Kd was determined as 3620 nM.

In assay [2], “hNM2B rod (1337–1976), purified (from UniProt P35580 1337-1976) (domain or fragment)” came in with a Kd of 346 nM.

B1: GST-mCGNL1 (1–122) (domain or fragment)
chain: MELYFGEYQHVQQEYGVHLRLASGDTPKPRNSQPSKAGSYGVSIRVQGIDGHPYIVLNNTERCLAGTPFPENAPSFPSSVINNLSLHPSNGTVLKENTPEELQLPENPYLQTSPLRGQKQFS
Regarding B1, the Kd in assay [1] (both partners purified) is 79.8 nM. That is a double-digit nanomolar value.

B2: GST-cNM2A (1461–1960) (domain or fragment, canis (dog), UniProt Q258K2 1461-1960, looked up)
chain: AEERDRAEAEAREKETKALSLARALEEAMEQKAELERLNKQFRTEMEDLMSSKDDVGKSVHELEKSKRALEQQVEEMKTQLEELEDELQATEDAKLRLEVNLQAMKAQFERDLQGRDEQSEEKKKQLVRQVREMEAELEDEKKQRSMAVAARKKLEMDLKDLEAHIDSANKNRDEAIKQLRKLQAQMKDCVRELDDTRASREEILAQAKENEKKMKSMEAEMIQLQEELAAAERAKRQAQQERDELADEIANSSGKGALALEEKRRLEARIAQLEEELEEEQGNTELVNDRLKKANLQIDQINTDLNLERSHAQKNENARQQLERQNKELKVKLQEMEGTVKSKYKASITALEAKIAQLEEQLDNETKERQAACKQVRRAEKKLKDVLLQVDDERRNAEQFKDQADKASTRLKQLKRQLEEAEEEAQRANASRRKLQRELEDATETADAMNREVSSLKNKLRRGDLPFVVPRRVARKGAGDCSDEEVDGKADGAEAKAAE
notes: canis nonmuscle myosin-2A heavy chain, rod fragment 1461-1960; also called NM2A rod bait, last ≈500 residues; not shown: GST, N-terminal, kept
For the molecule B2, the binding result in assay [3] was “binds”.

B3: GST-cNM2A (1711–1960) (domain or fragment, canis (dog), UniProt Q258K2 1711-1960, looked up)
chain: ANSSGKGALALEEKRRLEARIAQLEEELEEEQGNTELVNDRLKKANLQIDQINTDLNLERSHAQKNENARQQLERQNKELKVKLQEMEGTVKSKYKASITALEAKIAQLEEQLDNETKERQAACKQVRRAEKKLKDVLLQVDDERRNAEQFKDQADKASTRLKQLKRQLEEAEEEAQRANASRRKLQRELEDATETADAMNREVSSLKNKLRRGDLPFVVPRRVARKGAGDCSDEEVDGKADGAEAKAAE
notes: canis nonmuscle myosin-2A heavy chain, rod and tail fragment 1711-1960; also called last 250 residues of NM2A; not shown: GST, N-terminal, kept
In the case of B3, in assay [3], the binding result was “binds”.

B4: ZO1 (protein)
chain: EDEDEDGHTVVATARGIFNSNGGVLSSIETGVSIIIPQGAIPEGIEQEIYFKVCRDNSILPPLDKEKGETLLSPLVMCGPHGLKFLKPVELRLPHCDPKTWQNKCLPGDPNYLVGANCVSVLIDHF
Take B4: the equilibrium dissociation constant (Kd) with CGN worked out at 7.7 nM; in the assay with CGNL1, 79.8 nM.
